Measured values as given in the DeepSol protein solubility set.

Experiment: soluble on expression in E. coli; label from the status in PepcDB or PDB records

Row | Sequence | soluble on expression in E. coli
1 | DDGSNEDTKQALSALSEQGLIKLISLSENQGKGGAVMAGLHQAHQLGFTHTIQIDADGQHDLEALPKLLSASETKPDNLISGQPIYDESVPKARLYGRYATHIWVWIETLSLSIKDSMCGFRAYPVAKTVAVLNKYNIGKRMDFDIEILVRMYWEGVDIDFVPTRVIYPEGGISHFDALWDNVKISWMHTRLFFGMLPRIPSLLARKRRHTDDSNAHWSKRKEQGTILGIKTLLAVYRLFGRKAFDLILKLVMRYYHFTGKSAREASEIYLQNLQRYAAQQNIALPKQLDSYHHLLSFGRTMLDKLAAWQGDFNVDNLTIHGQHHFEEMAQKKQGVLILGSHLGNIELCRALGRRHSHVKINALVFTQHAEQFNAVMKAVNPNSELNLIQVSSMGPDTAILLQQKIEQGEWVVIVGDRTSTSKENRVVWADFLGKPAPFPQGP | not soluble
2 | GSFLPNSEQQKSVDIVFSSPQDLTVSLIPVSGLKAGKNAPSAKIAKLVVNSTTLKEFGVRGISNNVVDSTGTAWRVAGKNTGKEIGVGLSSDSLRRSDSTEKWNGVNWMTFNSNDTLDIVLTGPAQNVTADTYPITLDVVGYQP | soluble
3 | MGSDKIHHHHHHMAPRTKTRERIVQASLELFNQQGERCITTNHIAAHMEISPGNLYYHFANKQVIIAELFTQYETLVGSFLTLRTDRLPTIEDKRDYFLAMIDAMWRYRFLHQDLEHLLTSDAELARRYRRFSYRCLMQAMNIYRGFIKAGILQMDESQIEWTSLNTWIVLTSWVRFLCTNRENNAELNESAIRRGVYQVLMLESVFVAPQAREAFDALCETFHSSLPEALA | not soluble
4 | MTTRDLTAAYFQQTISANSNVLVYFWAPLCAPCDLFTPTYEASSRKHFDVVHGKVNIETEKDLASIAGVKLLPTLMAFKKGKLVFKQAGIANPAIMDNLVQQLRAYTFKSPAGEGIGPGTKTSS | soluble
5 | VGKEKMPVELYHAGEEITQLVREFATDKMKKAVQTFEKLERMENMDRVKEETLAHFEETLEDFEDFVGDIEEVLQDIIKEEVRKLIVHENVRPDNRKLEEIRP | not soluble
6 | SKRVEVLLTQLPAYNRLKTPYEAELIETAKKMTAPGKGLLAADESTGSCSKRFAGIGLSNTAEHRRQYRALMLECEGFEQYISGVILHDETVYQKAKTGETFPQYLRRRGVVPGIKTDCGLEPLVEGAKGEQMTAGLDGYIKRAKKYYAMGCRFCKWRNVYKIQNGTVSEAVVRFNAETLARYAILSQLCGLVPIVEPEVMIDGTHDIETCQRVSQHVWSEVVSALHRHGVVWEGCLLKPNMVVPGAESGLKGHAEQVAEYTVKTLARVIPPALPGVTFLSGGLSEVMASEYLNAMNNCPLPRPWKLTFSYARALQSSAIKRWGGKESGVEAGRRAFMHRAKMNSLAQLGKYNRADDDKDSQSLYVAGNT | soluble
7 | MAGKWNVLSLLAFRPCQPALPHDNHGGGMDAIYLKLDGIEGESRIKGFENQIKLIAYNHNPTKRESGEARGTYIGGLTLTKPVDLATPGLYEHYCNGKTVKEGVLTLCRRDKGAMLPFIIYTLTNVRISRMSNHGDAEGSATETVDLVYSHIRWDIPALASKSKTRRPLHRQALWR | not soluble
8 | MSDPRPVVARCEGMFPADLARYEAQRTRKGGDLGHIDASRSHLNRPLLGEADWAKQAMAEIEAMRAENYADELEALQRRGRKKEIQKRMVEGPKDPWRASRHGPLREIILTAHKDWFNEIVFDGNRMDFAARERAFEDRAVAWLQQTFGDDIVHARADLDETTYHIHAVLVPRAVVKVNGATRRMLQPSIHPLIEDYEKLQDSVGAWFSAIGLARGEKRAEAIREAAAKGDPIPKKRHHCRPSDWRRRQEAEVIRQRAEVEAREAATAETAAALDARRADLAHHEERLAAEDARLSAVAATRRAEAGRLDHRVEAVVARETVADERMAEADAVLAVAEGPGAGAFDIDDAGGTPMLTERPENPSLLARLKRPVAGSDRGRARAVAALGAAWTRLRKAAGEAAEARLAREHEDLRKADEALLEVARTLPETARERIARARPTIARSLTGIGLTLRRLRGRDGGAQRDESGTGEKLEHHHHHH | soluble
9 | MGSDKIHHHHHHMLLFQDLRKDIYEIVSKRFRISENDVYLDDTGHSDITIRVFRILKSPDGGENAVMEIVRSISEKDYVEKALSEGGYINVWIKRTYMLREVLESIEKSGTYPDVFQEAERVSVEHTSANPTGPLHIGRARNSIIGDSIYRILSRYGYRTVRQYFVNDSGKQMISLYTAYIKYGGPITIENLLENYQKIYREMEKDQSIEKEIEKNIERYENADPEVFGTLRKIAGVMLDGIASTLKRIGIEFDEFDWESDLLLNGSVRKAIDMLETKEEDSARYIEISGKKVFLTRKDGTTLYFARDIAYHLFKAENSEWIIDVLGEDHKDHAKSLNHVLKEMLKLENRVSFMYYSFITLETGKMSTRRGNIVTLQDLVDRTYDEALKIVNEKRPDLSEEERKKIAEVIASSAVRYSIIRVSAPKPITFRWEEALNFESNSAPFIMYSHARAASILDKAPEPEQSYGMDMPKEEADLVKAMYVYPYYLKDAAQDLKPDLIAAYLISLVQKFNDFYGACRVIGTDPLTYARRIRIVKAYKQILSDAGDLIGIKMLDQM | not soluble
10 | MGGSHHHHHHGMASALFRMLNSSFEDDPFFSESILAHRENMRQMIRSFSEPFGRDLLSISDGRGRAHNRRGHNDGEDSLTHTDVSSFQTMDQMVSNMRNYMQKLERNFGQLSVDPNGHSFCSSSVMTYSKIGDEPPKVFQASTQTRRAPGGIKETRKAMRDSDSGLEKMAIGHHIHDRAHVIKKSKNKKTGDEEVNQEFINMNESDAHAFDEEWQSEVLKYKPGRHNLGNTRMRSVGHENPGSRELKRREKPQQSPAIEHGRRSNVLGDKLHIKGSSVKSNKK | not soluble
11 | MSLSFHEIRFPASLSFGSVGGPERRTDVVTLANGFEERNTPWAHSRRRYDAGMGMRSLDDIEALIAFFEARQGQIFGFRWKDWSDYKSARPTAEVDFRDQVIGLGDGVQTGFQLLKSYRSGDSIYPRPIAKPVDGTVRMGLGQEEIKEGIDFTLDPTTGMVVLSHPPENGIEVVAGFEFDVPVRFDTDRILTSVASFQAGDVPNVPVVEVRAEGHHHHHH | soluble
12 | VKSKAKKTVDKHSDEYKIRRERNNIAVRKSRDKAKMRNLETQHKVLELTAENERLQKKVEQLSRELSTLRNLFKQLPEPLLASSGHC | soluble
13 | MDALVEDDICILNHEKAHKRDTVTPVSIYSGDESVASHFALVTAYEDIKKRLKDSEKENSLLKKRIRFLEEKLIARFEEETSSVGREQVNKAYHAYREVCIDRDNLKSKLDKMNKDNSESLKVLNEQLQSKEVELLQLRTEVETQQVMRNLNPPSSNWEVEKLSCDLKIHGLEQELELMRKECSDLKIELQKAKQTDPYQEDNLKSRDLQKLSISSDNMQHAYWELKREMSNLHLVTQVQAELLRKLKTSTAIKKGKSLFTGNH | soluble
14 | MTKTTILLLCGGGSSEHEISLVSANYIQQQLELTPEFHVIRVEMKKEGWFSEQGALVYLDTNSATLNSDKASYPIDFVVPCIHGFPGETGDIQSMLELAGIPYLGCGPEASANSFNKITSKLWYDALDIPNTPYLFLTQNTPSSIDKAKQAFGHWGSIFVKAARQGSSVGCYKVTTEDQIAPAIEAAFGFSEQVLVEQAVKPRELEVSAYEMNGKLYISKPGEVIAPEGTFYSYEEKYSANSHARTVLEAENLTEKHKELIQTYAERVFIHMKLRHLSRIDFFLTQEGQIYLNEVNTFPGMTPISMFPKMLEHNGHRFSEFLVQCVTNTLVNAK | not soluble
15 | MSLEKFVVQDIQIDGLQRVALGAALLKMPVRVGDSVDSQDVANIIKALYSSGNFEDVKVLRDGNTLMVQVKERPTIASVSFSGNKAIKEEQLKQNLEASSIRVGEALDRTTLSNIEKGLEDFYYSVGKYNATVKAVVTPLPRNRADLKFVFTEGVSAKIQQINFIGNQVFSDEELLSRFNLNVDVAWWNFLADDKYKKQVLAGDIEALRTYYLDRGYLKFQVDSTQVAISPDKKGVYITLNLNEGEPYTVSKVQFRGELMGKEAEFTSLIPFEIGETYNGSAVTRLEESVKKVLGESGYAYPQVRTIPEFDDEKQQVSLVVHVEAGKRVYVRDIRFVGNNSTRDEVLRREMRQMEGSWLNSKDIETGKTRLNRLGFFETVEVQTVRVPGSEDQVDLVYSVKEANSGNVNFGVGYGTESGVSFQVGLQQDNFLGSGNRVGVNAMINDYQKNLTLEYRDPYWNLDGVSLGGKVFYNQFEASEAGIVDYTNESYGTSLTWGFPFDELNRFEFGIGYTHNKIGNLTPYLQVENFLAAQASNIDSGGNLLTDDFDINLSWTRNNLNNSYFPTAGNHQRAFYKMTVPGSDAQYFKLQYDVRQYFPLTKKHEFTLLLRGRLGYGNGYGQTDGKDNLFPFYENFYAGGFTSLRGFGSNSAGPKAVYRDYSGSNNGSDTATDDSVGGNAIALASVELIVPTPFASEEARNQIRTSIFYDMASVWDTEFDYRGKADYGNQYYYDYSDPTNYRSSYGVALQWVSPMGPLVFSLAKPIKKYEGDDEEFFTFTIGRTFEGHHHHHH | not soluble
16 | MGSDKIHHHHHHMLEATYHSLEDLAEAIGVALSAPITIEDRNHRLLAYSTHTADTDPARIATIIGRRVPESVIDQLWKDEVIQNLAAQDEPLIISARTGVGLNDRVAIAIKQDTEILGYIWSIARSTPFSETELSDFKKGALLAQRQLLAIDMQKKRQEEKTEQFFFELLHEDMPESEILKTFSKLHVAPPGISRLMVIRFSEAITPRLADRLRYLLTIQQTVRPLLYAYDETDFILWISTNDQDAHHERLQFDAFIQSFRQMLAERFNYTNFISASSEVFTGVQSIPERYEETGIVLRLKDAFPFELSTVTRYERLGLFQLLPIFSERLRRRTVRLEEIERLRSYDEKHAASLCETLEWFLHYDGNVKQVASHLHVHPNTILYRMRRIEEEAGIRMESLPERALLYLYLKADRYPL | not soluble
17 | MDIFMTCSICGFTHNCICAHQPNLSSNIEFALLYHENERHKLTNTGKLLLNSLSNTTEYTWQRKEPPQALISKINQADTETWLLFPSKEPVLSSDFHHRHDPSKKQLFVLLDATWQEAKKMVNKSPWLKALPCLEIQTDEASRYHLRRNQSEGNLCTCEAGIEVLEMVKEPENAQALSCYYDQFLTVFQAERSGHKFTSLEHHHHHH | soluble
18 | MIISEFDRNNPVLKDQLSDLLRLTWPEEYGDSSAEEVEEMMNPERIAVAAVDQDELVGFIGAIPQYGITGWELHPLVVESSRRKNQIGTRLVNYLEKEVASRGGITIYLGTDDLDHGTTLSQTDLYEHTFDKVASIQNLREHPYEFYEKLGYKIVGVLPNANGWDKPDIWMAKTIIPRPD | soluble
19 | MIGMAEVKLINIWKRFGDVTAVKDLSLEIKDGEFLVLLGPSGCGKTTTLRMIAGLEEPTRGQIYIEDNLVADPEKGVFVPPKERDVAMVFQSYALYPHMTVYDNIAFPLKLRKVPKQEIDKRVREVAEMLGLTELLNRKPRELSGGQRQRVALGRAIIRRPKVFLMDEPLSNLDAKLRVKMRAELKKLQRQLGVTTIYVTHDQVEAMTMGDRIAVMNKGELQQVGTPDEVYYKPVNTFVAGFIGSPPMNFLDATITDDGFLDFGEFKLKLLQDQFEVLEEENMVGKEVIFGIRPEDVHDASFTHIDVPEENTVKATVDIIENLGGEKIVHLRRGNISFTAKFPKESKVREGDEVSVVFDMKKIHIFRKDTEKAIF | soluble
20 | MGSDKIHHHHHHAGFGVAGLSEKTYKTVLNTNMGALYSPSLSAQVVDGACYLINYELDLNSPENANAATNGYLTATISVADEITKGQPVFYNVPDSASLLQNEIPVKNLFSNGDYGVYVDGYLFFFITMDMFKDQKNSYTLYWDRSKEPTMVDNVPTYDLFLRVAKVADGTGSAASSIGEVRAFNVKSVLESVNSAEANKDSKSFNLKVNYLNTINEKDSTDLKWASYTVLFQVVKNS | not soluble
